As usually defined, the Kd is the constant that tells how readily two partners part at equilibrium. Read a high Kd as lower affinity.

In one assay the target is HLA-B*58:01. Put plainly: IEDB peptide-MHC binding, purified MHC/direct/fluorescence; filed as Kd, often an IC50 or EC50 that approximates it; ≥ and ≤ were set here for values at or beyond the usual limits of such assays.
The target in assay [1] is HLA-A*30:01. Described as above.
The target in assay [2] is HLA-A*01:01. Described as above.
Assay [3] has as its target HLA-B*27:05. The assay is described as above.
Assay [4] deals with HLA-A*11:01. The description is as above.
The next assay concerns the target HLA-B*07:02. The assay is described as above.
For another assay, the target named is HLA-A*69:01. Described as above.
The target in the next assay is HLA-B*08:01. The description is as above.
For assay [5], the target named is HLA-A*02:01. The assay is described as above.
Another assay concerns the target HLA-B*44:02. The assay is described as above.
Another assay has as its target HLA-A*31:01. The assay is described as above.
The next assay concerns the target HLA-A*24:03. The description is as above.
The target of the next assay is HLA-A*26:01. Described as above.
The target in another assay is HLA-B*40:01. The description is as above.
In a further assay the target is HLA-A*03:01. The description is as above.
Assay [6] deals with HLA-B*15:01. The assay is described as above.
The next assay deals with HLA-A*24:02. Put plainly: IEDB peptide-MHC binding, purified MHC/competitive/fluorescence; filed as Kd, often an IC50 or EC50 that approximates it; ≥ and ≤ were set here for values at or beyond the usual limits of such assays.
The target of assay [7] is HLA-A*02:01. The description is as above.
Another assay concerns the target HLA-A*02:06. The description is as above.
Assay [8] deals with HLA-B*27:05. The description is as above.
A further assay addresses HLA-B*35:01. Put plainly: IEDB peptide-MHC binding, purified MHC/direct/fluorescence; filed as Kd, often an IC50 or EC50 that approximates it; ≥ and ≤ were set here for values at or beyond the usual limits of such assays.
The target of assay [9] is HLA-A*30:01. The experiment in a line: IEDB peptide-MHC binding, purified MHC/competitive/fluorescence; filed as Kd, often an IC50 or EC50 that approximates it; ≥ and ≤ were set here for values at or beyond the usual limits of such assays. Particulars: source organism: Human immunodeficiency virus 1.
In assay [10] the target is HLA-A*01:01. The assay is described as above. The note with it: source organism: Human immunodeficiency virus 1.
A further assay addresses HLA-A*02:03. Described as above. The note with it: source organism: Human immunodeficiency virus 1.
Assay [11] has as its target HLA-A*11:01. Described as above. Particulars: source organism: Human immunodeficiency virus 1.
Assay [12] has as its target HLA-B*57:01. The description is as above. The note with it: source organism: Human immunodeficiency virus 1.
For assay [13], the target named is HLA-B*15:17. The assay is described as above. Particulars: source organism: Human immunodeficiency virus 1.
Assay [14] deals with HLA-B*18:01. The assay is described as above. Particulars: source organism: Human immunodeficiency virus 1.
Assay [15] addresses HLA-B*15:01. The description is as above. Particulars: source organism: Human immunodeficiency virus 1.
Assay [16] concerns the target HLA-B*57:01. Put plainly: IEDB peptide-MHC binding, purified MHC/direct/fluorescence; filed as Kd, often an IC50 or EC50 that approximates it; ≥ and ≤ were set here for values at or beyond the usual limits of such assays. The note with it: source organism: Ravn virus - Ravn, Kenya, 1987.
Another assay concerns the target HLA-A*29:02. The assay is described as above. The note with it: source organism: Ravn virus - Ravn, Kenya, 1987.
In the next assay the target is HLA-A*02:12. The description is as above. Particulars: source organism: Ravn virus - Ravn, Kenya, 1987.
The next assay has as its target HLA-B*51:01. Described as above. Particulars: source organism: Ravn virus - Ravn, Kenya, 1987.
Assay [17] has as its target HLA-B*15:17. The description is as above. Particulars: source organism: Ravn virus - Ravn, Kenya, 1987.
In assay [18] the target is HLA-B*18:01. The description is as above. Particulars: source organism: Ravn virus - Ravn, Kenya, 1987.
[19] abbreviates: source organism: Salmonella enterica.
Where [20] appears, read: source organism: Escherichia coli.
Setting [21] is: source organism: Shigella boydii Sb227.
The mark [22] stands for this setting: source organism: Corynebacterium glutamicum.
Setting [23] is: source organism: Ravn virus - Ravn, Kenya, 1987.
[24] abbreviates: source organism: Marburg virus - Musoke, Kenya, 1980.
The mark [25] stands for this setting: source organism: Giardia lamblia ATCC 50803.

On to ALMRWRHPR, for which the Kd with HLA-B*58:01 (setting [19]) was at least 20 µM; in the assay with HLA-A*30:01 [1] (setting [20]) it was 0.00461 µM; in the assay with HLA-A*01:01 [2] (setting [19]) it was at least 20 µM; in the assay with HLA-B*27:05 [3] (setting [20]), 0.237 µM; with HLA-A*11:01 [4] (setting [20]), 0.00936 µM; with HLA-B*07:02 (setting [19]), at least 20 µM. For the same sequence, the Kd was at least 20 µM with HLA-A*69:01 (setting [19]); at least 20 µM with HLA-B*08:01 (setting [19]); 9.62 µM with HLA-A*02:01 [5] (setting [20]); at least 20 µM with HLA-B*44:02 (setting [19]); 0.00544 µM in the assay with HLA-A*31:01 (setting [20]); at least 20 µM with HLA-A*24:03 (setting [19]). The Kd with HLA-A*26:01 (setting [19]) is at least 20 µM; with HLA-B*40:01 (setting [19]) it was at least 20 µM; with HLA-A*03:01 (setting [20]) it was 0.0994 µM; with HLA-B*15:01 [6] (setting [19]) it was at least 20 µM.
EYARQVQMI yielded a Kd with HLA-A*24:02 (source organism: Vibrio vulnificus YJ016) of at most 0.001 µM.
For GLDDSALDA, the figures for the Kd with HLA-A*02:01 [7] (setting [21]) and in the assay with HLA-A*02:06 (setting [21]) were 0.402 µM and 2.1 µM, respectively.
GRADTKILF displayed a Kd with HLA-B*27:05 [8] (source organism: Influenza A virus (A/swine/Hong Kong/4/1976(H3N2))) of 0.0741 µM.
For GRQAPTADV, the Kd in the assay with HLA-B*27:05 [8] (source organism: Escherichia coli str. K-12 substr. MG1655) came out at 0.285 µM.
Take IVAWTRTAT: the Kd is at least 20 µM in the assay with HLA-B*58:01 (setting [22]); at least 10 µM with HLA-A*30:01 [1] (setting [22]); at least 20 µM with HLA-A*01:01 [2] (setting [22]); at least 20 µM with HLA-B*27:05 [3] (setting [22]); at least 20 µM with HLA-A*11:01 [4] (setting [22]); 0.0536 µM with HLA-B*07:02 (setting [22]). The Kd is at least 20 µM with HLA-A*69:01 (setting [22]); 2.72 µM in the assay with HLA-B*08:01 (setting [22]); at least 20 µM in the assay with HLA-A*02:01 [5] (setting [22]); at least 20 µM with HLA-A*31:01 (setting [22]); 0.893 µM in the assay with HLA-B*35:01 (setting [22]); 13.1 µM with HLA-A*24:03 (setting [22]). Moreover, the Kd with HLA-A*26:01 (setting [22]), with HLA-B*40:01 (setting [22]), with HLA-A*03:01 (setting [22]) and with HLA-B*15:01 [6] (setting [22]) was at least 20 µM in each case.
Take IYLRRYFEI: the Kd in the assay with HLA-A*24:02 (source organism: Escherichia coli E22) is at most 0.0001 µM.
In the assay with HLA-A*24:02 (source organism: Vibrio parahaemolyticus AQ3810), IYNTVVLTI came in with a Kd of 0.0004 µM.
With KSLYNTVAVLY, the Kd is 4.78 µM with HLA-A*30:01 [9]; 4.46 µM in the assay with HLA-A*01:01 [10]; at least 20 µM in the assay with HLA-A*02:03; at least 20 µM in the assay with HLA-A*11:01 [11]; 4.82 µM with HLA-B*57:01 [12]; 0.3 µM in the assay with HLA-A*02:06 (source organism: Human immunodeficiency virus 1). Besides, the Kd with HLA-B*15:17 [13] is 0.484 µM; with HLA-B*18:01 [14] it was 0.275 µM; with HLA-B*15:01 [15], at least 20 µM.
Regarding LAAPCRNAL, the Kd with HLA-B*58:01 (setting [20]) is at least 20 µM; with HLA-A*30:01 [1] (setting [20]), at least 10 µM; with HLA-A*01:01 [2] (setting [20]), at least 20 µM; with HLA-B*27:05 [3] (setting [20]) it was at least 20 µM; in the assay with HLA-A*11:01 [4] (setting [20]), at least 20 µM; in the assay with HLA-B*07:02 (setting [20]), 0.0276 µM. Also, the Kd with HLA-A*69:01 (setting [20]) is at least 20 µM; with HLA-B*08:01 (setting [20]), 0.849 µM; in the assay with HLA-A*02:01 [5] (setting [20]), at least 20 µM; in the assay with HLA-A*31:01 (setting [20]) it was at least 20 µM; with HLA-B*35:01 (setting [20]), 0.0256 µM; with HLA-A*24:03 (setting [20]), at least 5 µM. Besides, the Kd with HLA-A*26:01 (setting [20]) is at least 20 µM; in the assay with HLA-B*40:01 (setting [20]), at least 20 µM; in the assay with HLA-A*03:01 (setting [20]), at least 20 µM; with HLA-B*15:01 [6] (setting [20]), 3.73 µM.
Regarding NLFDWMHFL, the Kd was at least 20 µM in the assay with HLA-B*58:01 (setting [23]); at least 20 µM with HLA-A*30:01 [1] (setting [23]); at least 20 µM in the assay with HLA-B*57:01 [16]; 2.42 µM in the assay with HLA-A*29:02; at least 20 µM with HLA-B*07:02 (setting [23]); 0.0025 µM with HLA-A*69:01 (setting [24]). The Kd was 0.006 µM in the assay with HLA-A*02:12; at most 0.001 µM with HLA-A*02:01 [5] (setting [24]); at least 20 µM in the assay with HLA-B*51:01; at least 20 µM in the assay with HLA-B*44:02 (setting [23]); at least 20 µM with HLA-B*15:17 [17]; at least 20 µM with HLA-B*40:01 (setting [23]). Also, the Kd with HLA-B*18:01 [18] and in the assay with HLA-B*15:01 [6] (setting [23]) was at least 20 µM in each case.
Regarding PYPYLFYKF, the Kd with HLA-A*24:02 (source organism: Vibrio cholerae B33) was at most 0.0001 µM.
Consider RQVCFFSAT, for which the Kd with HLA-A*02:01 [7] (setting [25]) was determined as 3.27 µM; in the assay with HLA-A*02:06 (setting [25]) it was 0.0063 µM.
